Assay results reported in publication PMC2846751 (Biochemistry, 2010).

Experiments:
[1] = molecular target: ParD antitoxin (ParD1) of Caulobacter crescentus (Caulobacter crescentus); experiment: SEC
crystal structure = molecular target: the molecule itself; experiment: crystal structure

Sequence of ParD antitoxin (ParD1) of Caulobacter crescentus (natural protein) (P58091 whole entry): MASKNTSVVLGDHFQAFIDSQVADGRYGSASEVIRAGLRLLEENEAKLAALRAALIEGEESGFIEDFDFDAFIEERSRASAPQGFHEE

Row | Molecule | stoichiometry N [1] | binding result (crystal structure)
1 | ParD antitoxin (ParD1) of Caulobacter crescentus (natural protein) | 2 | 
2 | His6-ParE toxin (ParE1) of Caulobacter crescentus (natural protein, UniProt Q9A9T8 1-96, looked up, selenomethionine-labeled in the crystal and SAXS samples) MKPYRLSRRAKADLDDIWTYSEQRWGVEQAADYARELQATIEMIAEHPGMGQPDENLRAGYRRCASGSHVVFYRVGVRVEIIRVLHQSMNARAHLG |  | binds
